From patent US20120172293A1 (Takeda / Millennium, published 2012)
Starred links: 1 amine or outer side, 2 acyl side, 3 side chain; linkers in the order of their positions; H or OH if unused. Non-standard residues stand in square brackets, D forms with d. *: point of attachment. Asn(Me) = N-omega-methylasparagine, CNC(=O)C[C@H](N[*:1])C(=O)[*:2]; 4‑guanidinomethylbenzoyl = N=C(N)NCc1ccc(C(=O)*)cc1; Phe(4-NH2) = Nc1ccc(C[C@H](N)C(=O)O)cc1; 1Nal = N[C@@H](Cc1cccc2ccccc12)C(=O)O; Cyclohexanecarbonyl = O=C(C1CCCCC1)*; Arg(Me) = CNC(=N)NCCC[C@H](N)C(=O)O; Ala(cPr) = N[C@@H](CC1CC1)C(=O)O; 4Pal = N[C@@H](Cc1ccncc1)C(=O)O; Cha = N[C@@H](CC1CCCCC1)C(=O)O; Nle = CCCC[C@H](N)C(=O)O; Dap = NC[C@H](N)C(=O)O; Aib = CC(C)(N)C(=O)O; Bz = O=C(c1ccccc1)*

Tests used:
[1] = target: human Y2 receptor (human) (UniProt P49146); test: cell-based or functional assay
[2] = target: human Y2 receptor (human) (UniProt P49146); test: RBA: [125I]-PYY displacement, hY2R/CHO membranes

Sequence of human Y2 receptor (human) (P49146 whole entry): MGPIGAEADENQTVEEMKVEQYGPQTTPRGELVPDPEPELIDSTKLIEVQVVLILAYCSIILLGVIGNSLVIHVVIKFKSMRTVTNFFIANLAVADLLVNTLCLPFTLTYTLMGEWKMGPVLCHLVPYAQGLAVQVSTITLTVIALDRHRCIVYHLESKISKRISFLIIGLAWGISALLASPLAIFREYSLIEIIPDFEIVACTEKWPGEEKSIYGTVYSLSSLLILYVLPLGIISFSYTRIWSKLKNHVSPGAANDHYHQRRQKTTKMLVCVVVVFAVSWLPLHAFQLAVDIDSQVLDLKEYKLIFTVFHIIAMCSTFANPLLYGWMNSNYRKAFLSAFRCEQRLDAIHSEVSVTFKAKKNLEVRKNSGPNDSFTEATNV

GBA EC50 Ratio (vs PYY(3-36)), [35S]GTPγS [1]	IC50 Ratio (vs PYY(3-36)) [2]	Binder
5.4	5	Bz-RH[Cha]INL[Phe(4-NH2)]TRQR[Cha]-NH2 (SMILES CC[C@H](C)[C@H](NC(=O)[C@H](CC1CCCCC1)NC(=O)[C@H](Cc1c[nH]cn1)NC(=O)[C@H](CCCNC(=N)N)NC(=O)c1ccccc1)C(=O)N[C@@H](CC(N)=O)C(=O)N[C@@H](CC(C)C)C(=O)N[C@@H](Cc1ccc(N)cc1)C(=O)N[C@H](C(=O)N[C@@H](CCCNC(=N)N)C(=O)N[C@@H](CCC(N)=O)C(=O)N[C@@H](CCCNC(=N)N)C(=O)N[C@@H](CC1CCCCC1)C(N)=O)[C@@H](C)O) [Benzoyl-[Cha27,36, Ile28, Phe(4NH2)31]-PYY(25-36)]
8.5	7.6	Bz-RH[Cha]INL[4Pal]TRQR[Cha]-NH2 (SMILES CC[C@H](C)[C@H](NC(=O)[C@H](CC1CCCCC1)NC(=O)[C@H](Cc1c[nH]cn1)NC(=O)[C@H](CCCNC(=N)N)NC(=O)c1ccccc1)C(=O)N[C@@H](CC(N)=O)C(=O)N[C@@H](CC(C)C)C(=O)N[C@@H](Cc1ccncc1)C(=O)N[C@H](C(=O)N[C@@H](CCCNC(=N)N)C(=O)N[C@@H](CCC(N)=O)C(=O)N[C@@H](CCCNC(=N)N)C(=O)N[C@@H](CC1CCCCC1)C(N)=O)[C@@H](C)O) [Benzoyl-[Cha27,36, Ile28, Pya(4)31]-PYY(25-36)]
25	34	Bz-RH[Cha][1Nal]NL[Aib]TRQR[Cha]-NH2 (SMILES CC(C)C[C@H](NC(=O)[C@H](CC(N)=O)NC(=O)[C@H](Cc1cccc2ccccc12)NC(=O)[C@H](CC1CCCCC1)NC(=O)[C@H](Cc1c[nH]cn1)NC(=O)[C@H](CCCNC(=N)N)NC(=O)c1ccccc1)C(=O)NC(C)(C)C(=O)N[C@H](C(=O)N[C@@H](CCCNC(=N)N)C(=O)N[C@@H](CCC(N)=O)C(=O)N[C@@H](CCCNC(=N)N)C(=O)N[C@@H](CC1CCCCC1)C(N)=O)[C@@H](C)O) [Benzoyl-[Cha27,36, Nal(1)28, Aib31]-PYY(25-36)]
33	50	Cyclohexanecarbonyl-R[Nle][Cha][Cha]NL[Aib]TRQR[Cha]-NH2 (SMILES CCCC[C@H](NC(=O)[C@H](CCCNC(=N)N)NC(=O)C1CCCCC1)C(=O)N[C@@H](CC1CCCCC1)C(=O)N[C@@H](CC1CCCCC1)C(=O)N[C@@H](CC(N)=O)C(=O)N[C@@H](CC(C)C)C(=O)NC(C)(C)C(=O)N[C@H](C(=O)N[C@@H](CCCNC(=N)N)C(=O)N[C@@H](CCC(N)=O)C(=O)N[C@@H](CCCNC(=N)N)C(=O)N[C@@H](CC1CCCCC1)C(N)=O)[C@@H](C)O) [Cyclohexanecarbonyl-[Nle26, Cha27,28,36, Aib31]-PYY(25-36)]
15	18	Bz-RH[Cha]INL[Arg(Me)]TRQR[Cha]-NH2 (SMILES CC[C@H](C)[C@H](NC(=O)[C@H](CC1CCCCC1)NC(=O)[C@H](Cc1c[nH]cn1)NC(=O)[C@H](CCCNC(=N)N)NC(=O)c1ccccc1)C(=O)N[C@@H](CC(N)=O)C(=O)N[C@@H](CC(C)C)C(=O)N[C@@H](CCCNC(=N)NC)C(=O)N[C@H](C(=O)N[C@@H](CCCNC(=N)N)C(=O)N[C@@H](CCC(N)=O)C(=O)N[C@@H](CCCNC(=N)N)C(=O)N[C@@H](CC1CCCCC1)C(N)=O)[C@@H](C)O) [Benzoyl-[Cha27,36, Ile28, Arg(Me)31]-PYY(25-36)]
18	28	Bz-RH[Cha][Cha]NL[Aib]TRQR[Cha]-NH2 (SMILES CC(C)C[C@H](NC(=O)[C@H](CC(N)=O)NC(=O)[C@H](CC1CCCCC1)NC(=O)[C@H](CC1CCCCC1)NC(=O)[C@H](Cc1c[nH]cn1)NC(=O)[C@H](CCCNC(=N)N)NC(=O)c1ccccc1)C(=O)NC(C)(C)C(=O)N[C@H](C(=O)N[C@@H](CCCNC(=N)N)C(=O)N[C@@H](CCC(N)=O)C(=O)N[C@@H](CCCNC(=N)N)C(=O)N[C@@H](CC1CCCCC1)C(N)=O)[C@@H](C)O) [Benzoyl-[Cha27,28,36, Aib31]-PYY(25-36)]
28	37	Bz-RH[Cha]INL[Dap]TRQR[Cha]-NH2 (SMILES CC[C@H](C)[C@H](NC(=O)[C@H](CC1CCCCC1)NC(=O)[C@H](Cc1c[nH]cn1)NC(=O)[C@H](CCCNC(=N)N)NC(=O)c1ccccc1)C(=O)N[C@@H](CC(N)=O)C(=O)N[C@@H](CC(C)C)C(=O)N[C@@H](CN)C(=O)N[C@H](C(=O)N[C@@H](CCCNC(=N)N)C(=O)N[C@@H](CCC(N)=O)C(=O)N[C@@H](CCCNC(=N)N)C(=O)N[C@@H](CC1CCCCC1)C(N)=O)[C@@H](C)O) [Benzoyl-[Cha27,36, Ile28, Dap31]-PYY(25-36)]
6.6	12	Bz-RH[Cha]IN[Phe(4-NH2)]ITRQR[Cha]-NH2 (SMILES CC[C@H](C)[C@H](NC(=O)[C@H](CC1CCCCC1)NC(=O)[C@H](Cc1c[nH]cn1)NC(=O)[C@H](CCCNC(=N)N)NC(=O)c1ccccc1)C(=O)N[C@@H](CC(N)=O)C(=O)N[C@@H](Cc1ccc(N)cc1)C(=O)N[C@H](C(=O)N[C@H](C(=O)N[C@@H](CCCNC(=N)N)C(=O)N[C@@H](CCC(N)=O)C(=O)N[C@@H](CCCNC(=N)N)C(=O)N[C@@H](CC1CCCCC1)C(N)=O)[C@@H](C)O)[C@@H](C)CC) [Benzoyl-[Cha27,36, Ile28,31, Phe(4NH2)30]-PYY(25-36)]
4.5	7.2	{4‑guanidinomethylbenzoyl}-[Nle]H[Cha][Cha]NR[Cha]TRQR[Cha]-NH2 (SMILES CCCC[C@H](NC(=O)c1ccc(CNC(=N)N)cc1)C(=O)N[C@@H](Cc1c[nH]cn1)C(=O)N[C@@H](CC1CCCCC1)C(=O)N[C@@H](CC1CCCCC1)C(=O)N[C@@H](CC(N)=O)C(=O)N[C@@H](CCCNC(=N)N)C(=O)N[C@@H](CC1CCCCC1)C(=O)N[C@H](C(=O)N[C@@H](CCCNC(=N)N)C(=O)N[C@@H](CCC(N)=O)C(=O)N[C@@H](CCCNC(=N)N)C(=O)N[C@@H](CC1CCCCC1)C(N)=O)[C@@H](C)O) [4-Guanidinomethylbenzoyl-[Nle25, Cha27,28,31,36, Arg30]-PYY(25-36)]
23	15	Cyclohexanecarbonyl-RH[Cha][Ala(cPr)]NL[Aib]TRQR[Cha]-NH2 (SMILES CC(C)C[C@H](NC(=O)[C@H](CC(N)=O)NC(=O)[C@H](CC1CC1)NC(=O)[C@H](CC1CCCCC1)NC(=O)[C@H](Cc1c[nH]cn1)NC(=O)[C@H](CCCNC(=N)N)NC(=O)C1CCCCC1)C(=O)NC(C)(C)C(=O)N[C@H](C(=O)N[C@@H](CCCNC(=N)N)C(=O)N[C@@H](CCC(N)=O)C(=O)N[C@@H](CCCNC(=N)N)C(=O)N[C@@H](CC1CCCCC1)C(N)=O)[C@@H](C)O) [Cyclohexanecarbonyl-[Cha27,36, Ala(cPr)28, Aib31]-PYY(25-36)]
37	76	Cyclohexanecarbonyl-RH[Cha]I[Asn(Me)]LITRQR[Cha]-NH2 (SMILES CC[C@H](C)[C@H](NC(=O)[C@H](CC1CCCCC1)NC(=O)[C@H](Cc1c[nH]cn1)NC(=O)[C@H](CCCNC(=N)N)NC(=O)C1CCCCC1)C(=O)N[C@@H](CC(=O)NC)C(=O)N[C@@H](CC(C)C)C(=O)N[C@H](C(=O)N[C@H](C(=O)N[C@@H](CCCNC(=N)N)C(=O)N[C@@H](CCC(N)=O)C(=O)N[C@@H](CCCNC(=N)N)C(=O)N[C@@H](CC1CCCCC1)C(N)=O)[C@@H](C)O)[C@@H](C)CC) [Cyclohexanecarbonyl-[Cha27,36, Ile28,31, Asn(Me)29]-PYY(25-36)]
